Measurements from patent US20020123082A1 (NEW YORK UNIVERSITY, published 2002).
Non-standard residues stand in square brackets, D forms with d. No end group written: not given here. pY = N[C@@H](Cc1ccc(OP(=O)(O)O)cc1)C(=O)O; pT = C[C@@H](OP(=O)(O)O)[C@H](N)C(=O)O

B4: phospho-p27 peptide NAGSVEQT*PKKPGLRRRQT (peptide)
peptide: NAGSVEQ[pT]PKKPGLRRRQT
notes: Coupled to Sepharose beads; 19 C-terminal residues of p27; also called phospho-T187 p27 peptide; p27 phosphopeptide

Assays:
human Cul1 (endogenous) [1] = target: T1, human Cul1 (endogenous) (human, UniProt Q13616 1-776); assay: anti-Flag co-immunoprecipitation from transfected HeLa cells, anti-Cul1 immunoblot
T1 construct: A slower migrating form is said to be likely modified by a ubiquitin-like molecule
Source text: HeLa cells were transfected with mammalian expression plasmids encoding Flag-tagged versions of FBP1 (lane 1), (ΔF)FBP1 (lane 2), FBP4 (lane 3), FBP7 (lane 5), FBP2 (lane 7), (ΔF)FBP2 (lane 8), FBP3a (lane 9), (ΔF)FBP3a (lane 10), or with an empty vector (lanes 4 and 6). Cells were lysed and extracts were subjected to immunoprecipitation with a rabbit anti-Flag antibody (lanes 1-8). Immunoprecipitates were then immunoblotted with a mouse anti-Cul1 monoclonal antibody, a rabbit anti-Skp1 polyclonal antibody or a rabbit anti-Cul2 polyclonal antibody, as indicated. The last lane contains 25 μg of extracts from non-transfected HeLa cells; […] contains recombinant Cul1, Skp1, or Cul2 proteins used as markers.

His-tagged Elongin C = His-tagged Elongin C (human, UniProt Q15369 1-112); assay: pull-down of in vitro translated 35S-FBP on His-Elongin C Nickel-agarose beads
Experimental: FIG. 29. FBPs interact specifically with Skp1 through their F-box. The cDNAs of FBPs (wild type and mutants) were transcribed and translated in vitro (IVT) in the presence of 35S- methionine. […] Bound IVT proteins were analyzed by SDS-PAGE and autoradiography. The arrows on the left side of the panels point to the indicated FBPs. The apparent molecular weights of the protein standards are indicated on the right side of the panels.
As examples of the human FBP family, a more detailed characterization of some FBPs was performed. To confirm the specificity of interaction between the novel FBPs and human Skp1, eight in vitro translated FBPs were tested for binding to His-tagged-Skp1 pre-bound to Nickel-agarose beads. As a control Elongin C was used, the only known human Skp1 homolog.

[2] = target: B4; assay: in vitro translated 35S-FBP on phospho-p27 peptide Sepharose beads, RIPA wash, autoradiography
Experimental: (§1) FIG. 37A-C. […] Beads were washed with RIPA buffer and bound proteins were eluted and subjected to electrophoresis and autoradiography (Upper Panel). Bottom Panel: 10% of the in vitro translated [35S]FBP inputs. […] Beads were washed with RIPA buffer and bound proteins were immunoblotted with antibodies to the proteins indicated on the left of each panel. A portion of the HeLa extract (25 μg) was used as a control (lane 4). […] C. […] Beads were washed with RIPA buffer and bound proteins subjected to electrophoresis and autoradiography.

human F-box protein Skp2 = target: T2, human F-box protein Skp2 (human, UniProt Q13309 1-424); assay: HeLa cell extract on peptide beads, RIPA wash, immunoblot
T2 construct: Used as in vitro translated 35S-Skp2, as endogenous protein of HeLa and IMR90 extracts and as untagged baculovirus protein; also called S-phase kinase-associated protein 2
Experimental: (§2) Beads were washed with RIPA buffer and bound proteins were immunoblotted with antibodies to the proteins indicated on the left of each panel. A portion of the HeLa extract (25 μg) was used as a control (lane 4). […] C. […] Beads were washed with RIPA buffer and bound proteins subjected to electrophoresis and autoradiography.
(§3) Proteins stably associated with the beads were examined by immunoblotting.

[3] = target: human Skp1 (endogenous, HeLa cells) (human, UniProt P63208 2-163); assay: as above
Experimental: as §2, §3

human Cul1 (endogenous) [4] = target: T1, human Cul1 (endogenous); assay: as above
Experimental: as §2, §3

human F-box protein FBP1 = target: T3, human F-box protein FBP1 (human, UniProt Q9Y297 1-605); assay: in vitro translated 35S-FBP on phospho-p27 peptide Sepharose beads, RIPA wash, autoradiography
T3 sequence: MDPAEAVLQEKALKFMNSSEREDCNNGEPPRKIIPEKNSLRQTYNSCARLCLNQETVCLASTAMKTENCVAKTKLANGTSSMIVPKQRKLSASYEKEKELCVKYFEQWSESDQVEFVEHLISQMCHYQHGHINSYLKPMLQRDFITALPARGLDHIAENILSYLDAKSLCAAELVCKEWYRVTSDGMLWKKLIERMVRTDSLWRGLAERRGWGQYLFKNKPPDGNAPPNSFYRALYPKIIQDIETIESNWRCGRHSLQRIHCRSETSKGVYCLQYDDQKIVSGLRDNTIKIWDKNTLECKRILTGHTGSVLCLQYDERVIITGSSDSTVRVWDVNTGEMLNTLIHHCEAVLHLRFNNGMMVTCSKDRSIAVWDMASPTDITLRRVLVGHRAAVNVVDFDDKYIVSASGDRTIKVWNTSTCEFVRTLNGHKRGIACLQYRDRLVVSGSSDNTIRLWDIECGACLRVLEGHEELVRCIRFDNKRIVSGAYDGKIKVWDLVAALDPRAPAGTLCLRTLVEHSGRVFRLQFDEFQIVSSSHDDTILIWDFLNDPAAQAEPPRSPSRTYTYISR
Experimental: as §1

human F-box protein FBP5 = target: T4, human F-box protein FBP5 (human, UniProt Q9UKT4 1-447); assay: as above
T4 construct: Gal4 AD fusion in the two-hybrid screen; the clone appeared to be full length
T4 sequence: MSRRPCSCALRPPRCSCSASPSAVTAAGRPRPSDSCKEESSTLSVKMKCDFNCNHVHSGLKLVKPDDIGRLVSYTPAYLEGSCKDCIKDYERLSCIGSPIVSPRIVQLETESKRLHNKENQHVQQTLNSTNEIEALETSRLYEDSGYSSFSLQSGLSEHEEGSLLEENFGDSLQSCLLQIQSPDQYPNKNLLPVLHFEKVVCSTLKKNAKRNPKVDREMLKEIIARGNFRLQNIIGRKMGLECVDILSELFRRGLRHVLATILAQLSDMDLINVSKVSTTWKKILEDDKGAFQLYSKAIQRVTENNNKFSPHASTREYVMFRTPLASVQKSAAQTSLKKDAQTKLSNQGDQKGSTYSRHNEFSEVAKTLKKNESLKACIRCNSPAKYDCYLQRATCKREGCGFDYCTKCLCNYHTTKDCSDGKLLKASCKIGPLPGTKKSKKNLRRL
Experimental: as §1

[5] = target: T5, human F-box protein FBP3a (human, UniProt Q9UKT7 1-428); assay: as above
T5 sequence: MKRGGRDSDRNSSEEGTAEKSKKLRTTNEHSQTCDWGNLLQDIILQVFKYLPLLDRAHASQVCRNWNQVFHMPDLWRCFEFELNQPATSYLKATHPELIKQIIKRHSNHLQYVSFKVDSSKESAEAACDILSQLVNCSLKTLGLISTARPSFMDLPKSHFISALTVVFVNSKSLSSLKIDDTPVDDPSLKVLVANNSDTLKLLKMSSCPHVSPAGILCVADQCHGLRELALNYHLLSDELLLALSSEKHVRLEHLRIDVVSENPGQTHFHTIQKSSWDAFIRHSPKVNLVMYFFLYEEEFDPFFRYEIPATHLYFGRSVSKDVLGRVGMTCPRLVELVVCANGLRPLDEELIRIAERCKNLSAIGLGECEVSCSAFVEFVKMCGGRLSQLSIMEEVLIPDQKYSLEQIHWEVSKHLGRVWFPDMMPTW
Experimental: as §1

human F-box protein FBP2 = target: T6, human F-box protein FBP2 (human, UniProt Q9UKT8 1-419, limits assumed); assay: as above
T6 sequence: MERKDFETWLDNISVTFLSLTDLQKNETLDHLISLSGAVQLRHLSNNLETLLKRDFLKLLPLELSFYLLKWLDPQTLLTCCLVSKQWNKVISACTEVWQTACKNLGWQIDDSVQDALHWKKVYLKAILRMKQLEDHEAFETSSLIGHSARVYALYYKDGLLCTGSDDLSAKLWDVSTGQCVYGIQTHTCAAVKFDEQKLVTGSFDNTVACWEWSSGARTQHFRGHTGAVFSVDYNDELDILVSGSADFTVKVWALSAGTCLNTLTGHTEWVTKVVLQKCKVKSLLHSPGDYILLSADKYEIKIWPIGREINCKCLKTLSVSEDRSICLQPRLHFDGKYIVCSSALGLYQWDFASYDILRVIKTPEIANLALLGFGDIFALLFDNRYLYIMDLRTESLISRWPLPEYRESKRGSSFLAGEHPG
Experimental: as §1

T1 sequence (Q13616 whole entry): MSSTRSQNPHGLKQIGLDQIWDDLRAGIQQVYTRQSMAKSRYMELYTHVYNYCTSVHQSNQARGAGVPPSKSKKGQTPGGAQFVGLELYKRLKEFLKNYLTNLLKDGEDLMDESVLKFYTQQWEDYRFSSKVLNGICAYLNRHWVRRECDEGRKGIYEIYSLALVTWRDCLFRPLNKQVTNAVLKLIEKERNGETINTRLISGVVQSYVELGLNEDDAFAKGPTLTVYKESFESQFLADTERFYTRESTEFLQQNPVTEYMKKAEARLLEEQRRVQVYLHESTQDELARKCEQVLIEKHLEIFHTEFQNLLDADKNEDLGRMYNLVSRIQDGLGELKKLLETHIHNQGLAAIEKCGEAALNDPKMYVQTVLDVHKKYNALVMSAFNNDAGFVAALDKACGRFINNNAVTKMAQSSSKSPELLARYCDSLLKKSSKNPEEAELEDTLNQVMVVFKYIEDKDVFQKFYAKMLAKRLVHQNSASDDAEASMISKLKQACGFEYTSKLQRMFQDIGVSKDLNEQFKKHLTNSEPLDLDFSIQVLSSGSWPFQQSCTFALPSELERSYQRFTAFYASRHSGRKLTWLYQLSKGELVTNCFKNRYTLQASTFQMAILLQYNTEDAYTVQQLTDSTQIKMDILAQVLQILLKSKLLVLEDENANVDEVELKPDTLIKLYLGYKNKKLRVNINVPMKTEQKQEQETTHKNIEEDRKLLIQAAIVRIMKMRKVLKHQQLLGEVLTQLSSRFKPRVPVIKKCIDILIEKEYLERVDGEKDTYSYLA
T2 sequence (Q13309 whole entry): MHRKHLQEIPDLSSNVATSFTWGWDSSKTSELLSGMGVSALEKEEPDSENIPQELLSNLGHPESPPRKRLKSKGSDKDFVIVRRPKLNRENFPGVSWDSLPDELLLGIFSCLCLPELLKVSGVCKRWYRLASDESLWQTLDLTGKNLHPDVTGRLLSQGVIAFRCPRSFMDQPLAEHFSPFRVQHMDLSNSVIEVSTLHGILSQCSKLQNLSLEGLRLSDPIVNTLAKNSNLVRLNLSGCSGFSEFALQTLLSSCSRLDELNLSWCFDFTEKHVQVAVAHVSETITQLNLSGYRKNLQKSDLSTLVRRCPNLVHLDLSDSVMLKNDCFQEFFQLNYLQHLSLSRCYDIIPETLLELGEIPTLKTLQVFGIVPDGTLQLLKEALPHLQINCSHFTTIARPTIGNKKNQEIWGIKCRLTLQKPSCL
Sequence of His-tagged Elongin C (Q15369 whole entry): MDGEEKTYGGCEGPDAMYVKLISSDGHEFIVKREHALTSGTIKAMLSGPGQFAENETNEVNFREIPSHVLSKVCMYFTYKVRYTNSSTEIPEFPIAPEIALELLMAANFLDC
Sequence of human Skp1 (endogenous, HeLa cells) (P63208 2-163 limits assumed): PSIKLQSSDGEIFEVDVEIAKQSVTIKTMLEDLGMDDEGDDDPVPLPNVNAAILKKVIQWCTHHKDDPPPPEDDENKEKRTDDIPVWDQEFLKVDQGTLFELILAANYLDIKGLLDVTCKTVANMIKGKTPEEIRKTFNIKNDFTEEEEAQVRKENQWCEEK

B1: Flag-tagged (ΔF)FBP3a (other, not shown: small tags and cut ends)
chain: MKRGGRDSDRNSSEEGTAEKSKKLRTTNEHSQTCDWGNLRCFEFELNQPATSYLKATHPELIKQIIKRHSNHLQYVSFKVDSSKESAEAACDILSQLVNCSLKTLGLISTARPSFMDLPKSHFISALTVVFVNSKSLSSLKIDDTPVDDPSLKVLVANNSDTLKLLKMSSCPHVSPAGILCVADQCHGLRELALNYHLLSDELLLALSSEKHVRLEHLRIDVVSENPGQTHFHTIQKSSWDAFIRHSPKVNLVMYFFLYEEEFDPFFRYEIPATHLYFGRSVSKDVLGRVGMTCPRLVELVVCANGLRPLDEELIRIAERCKNLSAIGLGECEVSCSAFVEFVKMCGGRLSQLSIMEEVLIPDQKYSLEQIHWEVSKHLGRVWFPDMMPTW
notes: pcDNA3 construct, Flag tag at the C-terminus; also called Flag-tagged (deltaF)FBP3a
binding result (human Cul1 (endogenous) [1]): no binding

B2: human F-box protein FBP7 (other)
chain: MSNTRFTITLNYKDPLTGDEETLASYGIVSGDLICLILHDDIPPPNIPSSTDSEHSSLQNNEQPSLATSSNQTSIQDEQPSDSFQGQAAQSGVWNDDSMLGPSQNFEAESIQDNAHMAEGTGFYPSEPLLCSESVEGQVPHSLETLYQSADCSDANDALIVLIHLLMLESGYIPQGTEAKALSLPEKWKLSGVYKLQYMHHLCEGSSATLTCVPLGNLIVVNATLKINNEIRSVKRLQLLPESFICKEKLGENVANIYKDLQKLSRLFKDQLVYPLLAFTRQALNLPNVFGLVVLPLELKLRIFRLLDVRSVLSLSAVCRDLFTASNDPLLWRFLYLRDFRDNTVRVQDTDWKELYRKRHIQRKESPKGRFVLLLPSSTHTIPFYPNPLHPRPFPSSRLPPGIIGGEYDQRPTLPYVGDPISSLIPGPGETPSQLPPLRPRFDPVGPLPGPNPILPGRGGPNDRFPFRPSRGRPTDGRLSFM
binding result (His-tagged Elongin C): no binding | binding result [2]: no binding

B3: control phospho-peptide AEIGVGAY*GTVYKARDPHS of human Cdk4 (peptide)
peptide: AEIGVGA[pY]GTVYKARDPHS
notes: Coupled to beads; also called unrelated phospho-peptide
binding result (human F-box protein Skp2): no binding | binding result [3]: no binding | binding result (human Cul1 (endogenous) [4]): no binding

B4
binding result (human F-box protein FBP1): no binding | binding result (human F-box protein FBP5): no binding | binding result [5]: no binding | binding result (human F-box protein FBP2): no binding
